Measured values reported in publication PMC5013695.

Target: 14-3-3β (UniProt Q9CQV8)
Experiment: co-IP with anti-FLAG beads, 14-3-3β blot
Settings: reference: FLAG-Bmal1 wild type; sites S42

Chain of UniProt Q9CQV8 (Q9CQV8 whole entry, looked up): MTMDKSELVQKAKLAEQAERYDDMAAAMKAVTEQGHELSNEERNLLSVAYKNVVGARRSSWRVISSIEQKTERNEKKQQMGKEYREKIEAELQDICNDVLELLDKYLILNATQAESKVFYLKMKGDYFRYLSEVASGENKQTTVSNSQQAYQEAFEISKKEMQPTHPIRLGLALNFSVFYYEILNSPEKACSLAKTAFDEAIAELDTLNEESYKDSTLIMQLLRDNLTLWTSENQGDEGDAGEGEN

Bmal1 (from UniProt Q9WTL8-4) FLAG-Bmal1 S42A
binding against the reference: weaker
